Results taken from the RNAGym collection of RNA variant scans (doi:10.7554/elife.80360).

B1: Hammerhead Ribozyme (parent)
chain: ACCGGAUGUGCUUUCCGGUCUGAUGAGUCCGUGAGGACGAAACAG

Variants of: B1
Experiment: self-cleavage, relative activity (ratio to wild type); higher = more cleavage; co-transcriptional

Row | Variant | self-cleavage
1 | G22U A26U | 0.315
2 | A23G A37C | 0.3
3 | A23G A37U | 0.28
4 | A23G A37G | 0.314
5 | G22C U24C | 0.348
6 | G22C U24G | 0.281
7 | G22C U24A | 0.365
8 | G22C A40C | 0.339
9 | G22C A40G | 0.351
10 | G22C A40U | 0.342
11 | G22C U32C | 0.335
12 | G22C U32A | 0.371
13 | G22C U32G | 0.315
14 | G22U U24C | 0.348
15 | G22U U24A | 0.316
16 | G22U U24G | 0.361
17 | G22C C38A | 0.329
18 | G22C C38U | 0.315
19 | G22C C38G | 0.386
20 | A23C A34U | 0.298
21 | A23C A34G | 0.342
22 | A23C A34C | 0.374
23 | G22C C29A | 0.296
24 | G22C C29U | 0.3

Row | Variant | self-cleavage
25 | G22C C29G | 0.266
26 | A23U G27U | 0.279
27 | A23U G27C | 0.308
28 | A23U G27A | 0.32
29 | A23C C29G | 0.369
30 | A23C C29U | 0.337
31 | A23C C29A | 0.267
32 | A23C A40U | 0.243
33 | A23C A40C | 0.31
34 | A23C A40G | 0.351
35 | A23U A42U | 0.337
36 | A23U A42C | 0.331
37 | A23U A42G | 0.375
38 | A23U C38U | 0.341
39 | A23U C38G | 0.357
40 | A23U C38A | 0.381
41 | A23U A34G | 0.358
42 | A23U A34U | 0.28
43 | A23U A34C | 0.345
44 | G22C C43U | 0.391
45 | G22C C43A | 0.23
46 | G22C C43G | 0.24
47 | A23G G35C | 0.279
48 | A23G G35U | 0.316

Row | Variant | self-cleavage
49 | A23G G35A | 0.38
50 | A23C C38A | 0.327
51 | A23C C38G | 0.371
52 | A23C C38U | 0.316
53 | A23U | 0.425
54 | A23G | 0.439
55 | A23C | 0.547
56 | G22C A44G | 0.672
57 | G22C A44U | 0.323
58 | G22C A44C | 0.369
59 | A23G G27U | 0.282
60 | A23G G27A | 0.297
61 | A23G G27C | 0.285
62 | A23C G33C | 0.479
63 | A23C G33A | 0.621
64 | A23C G33U | 0.659
65 | G22C G36A | 0.317
66 | G22C G36C | 0.317
67 | G22C G36U | 0.322
68 | G22C A37U | 0.259
69 | G22C A37G | 0.416
70 | A23G U32G | 0.366
71 | A23G U32A | 0.387
72 | A23G U32C | 0.375

Row | Variant | self-cleavage
73 | A23G G45U | 0.297
74 | A23G G45A | 0.331
75 | A23G G45C | 0.33
76 | A23C A26G | 0.212
77 | A23C A26C | 0.376
78 | A23C A26U | 0.33
79 | G22U | 0.362
80 | G22C G39U | 0.286
81 | G22C G39C | 0.375
82 | G22C G39A | 0.364
83 | A23C A37U | 0.42
84 | A23C A37C | 0.384
85 | A23C A37G | 0.237
86 | U24A | 1.03
87 | A23C U24C | 0.505
88 | A23C U24G | 0.464
89 | A23C U24A | 0.397
90 | A23C A44C | 0.39
91 | A23C A44U | 0.227
92 | A23C A44G | 0.896
93 | G22U U28G | 0.294
94 | G22U U28C | 0.312
95 | G22U U28A | 0.326
96 | G22U G36U | 0.301

Row | Variant | self-cleavage
97 | G22U G36A | 0.316
98 | G22U G36C | 0.363
99 | G22U G25A | 0.269
100 | G22U G25C | 0.264
101 | G22U G25U | 0.303
102 | A23G C43G | 0.35
103 | A23G C43U | 0.269
104 | A23G C43A | 0.304
105 | G22U C43A | 0.293
106 | G22U C43G | 0.348
107 | G22U C43U | 0.305
108 | G22C A41U | 0.416
109 | G22C A41C | 0.321
110 | G22C A41G | 0.31
111 | G22U G35U | 0.366
112 | G22U G35C | 0.311
113 | G22U G35A | 0.335
114 | A23U G35U | 0.37
115 | A23U G35A | 0.471
116 | A23U G35C | 0.356
117 | A23G U24A | 0.645
118 | A23G U24C | 0.488
119 | A23G U24G | 0.283
120 | G22C U28A | 0.351

Row | Variant | self-cleavage
121 | G22C U28G | 0.293
122 | G22C U28C | 0.298
123 | G22C G27A | 0.359
124 | G22C G27C | 0.311
125 | G22C G27U | 0.352
126 | G22U C38G | 0.33
127 | G22U C38U | 0.335
128 | G22U C38A | 0.305
129 | A23U A44G | 0.706
130 | A23U A44U | 0.336
131 | A23U A44C | 0.438
132 | G22U A41U | 0.353
133 | G22U A41G | 0.311
134 | G22U A41C | 0.372
135 | A23G C38A | 0.328
136 | A23G C38G | 0.311
137 | A23G C38U | 0.394
138 | A23G A40U | 0.326
139 | A23G A40G | 0.306
140 | A23G A40C | 0.355
141 | A23U G39U | 0.315
142 | A23U G39A | 0.331
143 | A23U G39C | 0.341
144 | A23G C29G | 0.26

Row | Variant | self-cleavage
145 | A23G C29U | 0.356
146 | A23G C29A | 0.319
147 | A23G G36U | 0.403
148 | A23G G36C | 0.291
149 | A23G G36A | 0.34
150 | G22U G27U | 0.273
151 | G22U G27C | 0.347
152 | G22U G27A | 0.305
153 | A23U C43A | 0.377
154 | A23U C43U | 0.433
155 | A23U C43G | 0.356
156 | A23U U28C | 0.356
157 | A23U U28A | 0.375
158 | A23U U28G | 0.36
159 | G22C G31C | 0.37
160 | G22C G31A | 0.25
161 | G22C G31U | 0.309
162 | A23C G35C | 0.408
163 | A23C G35A | 0.397
164 | A23C G35U | 0.408
165 | A23U G25C | 0.31
166 | A23U G25U | 0.315
167 | A23U G25A | 0.267
